Results published in US20200332015A1 (NAMAB THERAPEUTICS, published 2020).
One block for each binder: values may come before it.

Legend:
[1] = target: T1, Fc tagged human CD137 (R&D Systems, cat. 838-4B-100) (human, UniProt Q07011 24-186); experiment: SPR T200, Fc-tagged antigen captured, scFv analyte
T1 construct: also called CD137 Fc chimera; human CD137-Fc chimeric protein
Method: (§1) Affinity of the humanized scFvs to human CD137 was determined by SPR analysis on a T200 device (Biacore, GE Healthcare). […] After each analyte injection cycle, the anti-human Fc-specific IgG was regenerated and new antigen was captured. The scFvs were injected as analyte using a dose response multi-cycle kinetic assay over the captured CD137 with concentrations of the analyte ranging from 0.19 to 45 nM (three-fold dilutions steps) diluted in running buffer. Association and dissociation time were set to 300 s and 720 s, respectively. Obtained sensorgrams were fitted using the 1:1 binding model.

[2] = target: T2, cynomolgus monkey Fc-tagged CD137 (R&D Systems, cat. 9324-4B-100) (cynomolgus monkey, UniProt A9YYE7 24-186); experiment: SPR T200, Fc-tagged antigen captured, scFv analyte
T2 construct: also called cynomolgus CD137-Fc chimeric protein
T2 sequence (A9YYE7 entry or part of it): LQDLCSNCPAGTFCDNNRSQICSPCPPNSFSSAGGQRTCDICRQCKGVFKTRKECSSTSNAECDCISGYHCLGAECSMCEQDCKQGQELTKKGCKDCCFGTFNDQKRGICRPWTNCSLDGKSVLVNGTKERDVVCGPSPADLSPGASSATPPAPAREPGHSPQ
Method: as §1
Cross-reactivity to cynomolgus CD137 was measured with cynomolgus monkey Fc-tagged CD137 (R&D Systems, cat. 9324-4B-100) in a similar assay as used to measure binding to human CD137.

[3] = target: human PDL1-Fc chimeric protein (human, UniProt Q9NZQ7 19-238, limits assumed); experiment: SPR T200, antigen-Fc captured, molecule as analyte
Method: (§2) Affinity to PDL1 of the different species was determined by SPR measurements using a Biacore T200 device (GE Healthcare). An antibody specific for the Fc region of human IgGs was immobilized on a sensor chip (CM5 sensor chip, GE Healthcare) by amine-coupling. For all formats, with the exception of the Fc containing Morrison formats, PDL1-Fc chimeric protein from different species were captured by the immobilized antibody. Three-fold serial dilutions of the molecules specific for PDL1 (0.12-90 nM) were injected into the flow cells for three minutes and dissociation was monitored for 10 minutes. After each injection cycle, surfaces were regenerated with one injection of a 3 M MgCl₂ solution. The apparent dissociation (kd) and association (kₐ) rate constants and the apparent dissociation equilibrium constant (KD) were calculated using one-to-one Langmuir binding model. Affinity to CD137 of the different species was determined using the identical setup as for PDL1 with the exception that CD137-Fc chimeric proteins from different species were captured by the immobilized antibody.

[4] = target: cynomolgus PDL1-Fc chimeric protein (cynomolgus, UniProt G7PSE7 19-238); experiment: SPR T200, antigen-Fc captured, molecule as analyte
cynomolgus PDL1-Fc chimeric protein, sequence (G7PSE7 entry or part of it mutant): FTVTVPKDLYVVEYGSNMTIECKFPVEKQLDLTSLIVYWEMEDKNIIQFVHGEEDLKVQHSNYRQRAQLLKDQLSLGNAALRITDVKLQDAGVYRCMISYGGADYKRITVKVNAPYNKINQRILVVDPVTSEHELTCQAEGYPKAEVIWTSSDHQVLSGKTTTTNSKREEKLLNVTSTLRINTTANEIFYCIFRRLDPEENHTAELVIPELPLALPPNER
Method: as §2

[5] = target: T3, mouse serum albumin (mouse, UniProt P07724 25-608); experiment: SPR T200, SA coupled to chip, pH 5.5
T3 construct: also called mouse SA; MSA
Method: (§3) Affinity of molecules to serum albumin (SA) of the different species was determined by SPR measurements using a Biacore T200 device (GE Healthcare). SA was directly coupled to a CM5 sensor chip (GE Healthcare) using amine coupling chemistry. […] The assay was run in a 1×PBS-Tween buffer at pH 5.5.

[6] = target: T4, human serum albumin (human, UniProt P02768 25-609); experiment: SPR T200, SA coupled to chip, pH 5.5
T4 construct: also called human SA; HSA
Method: as §3

[7] = target: T1, Fc tagged human CD137 (R&D Systems, …); experiment: SPR T200, antigen-Fc captured, molecule as analyte
Method: as §2

B2: PRO1013 (37-20-B03 CDR, VH1, scFv) (scFv)
scFv: DIQMTQSPSSLSASVGDRVTITCQASQSIGTYLAWYQQKPGKAPKLLIYRAFILASGVPSRFSGSGSGTDFTLTISSLQPEDFATYYCQSNFYSDSTTIGPNAFGTGTKVTVLGGGGGSGGGGSGGGGSGGGGSQVQLVQSGAEVKKPGASVKVSCKASGFSFNSDYWIYWVRQAPGQGLEWMGSIYGGSSGNTQYASWAQGRVTMTRDTSISTAYMELSSLRSEDTAVYYCARGYVDYGGATDLWGQGTLVTVSS
notes: its row bears no clone label
- Kd [3]: 0.045 nM
- koff [3]: 0.00027 s⁻¹
- kon [3]: 6e+06 M⁻¹ s⁻¹
- Kd [4]: 0.053 nM
- koff [4]: 0.00032 s⁻¹
- kon [4]: 5.9e+06 M⁻¹ s⁻¹

B3: PRO963 (38_02_A04 sc01 scDb-i/33-03-G02 sc01 scDb-o/19-01-H04-sc03 scFv) (other)
chain: DIQMTQSPSSLSASVGDRVTITCQASQSINDYLAWYQQKPGKAPKLLIYKASTLASGVPSRFSGSGSGTDFTLTISSLQPEDFATYYCQQGYIITDIDNVFGTGTKVTVLGGGGGSQVQLQESGPGLVKPSETLSLTCKVSGFSFSNSYWICWIRQPPGKGLEWIGCTFVGSSDSTYYANWAKGRVTISVDSSKNQFSLKLSSVTAADTAVYYCARHPSDAVYGYANNLWGQGTLVTVSSGGGGSGGGGSGGGGSGGGGSIQMTQSPSSLSASVGDRVTITCQASQSINNVLAWYQQKPGKAPKLLIYRASTLASGVPSRFSGSGSGTDFTLTISSLQPEDFATYYCQSSYGNYGDFGTGTKVTVLGGGGGSQVQLQESGPGLVKPSETLSLTCKVSGFSFSSGYDMCWIRQPPGKGLEWIGCVVAGSVDITYYASWAKGRVTISVDSSKNQFSLKLSSVTAADTAVYYCARKDAYSDAFNLWGQGTLVTVSSGGGGSGGGGSIQMTQSPSSLSASVGDRVTITCQSSESVYSNNQLSWYQQKPGQPPKLLIYDASDLASGVPSRFSGSGSGTDFTLTISSLQPEDFATYYCAGGFSSSSDTAFGGGTKLTVLGGGGGSGGGGSGGGGSGGGGSEVQLVESGGGLVQPGGSLRLSCAASGFSLSSNAMGWVRQAPGKGLEYIGIISVGGFTYYASWAKGRFTISRDNSKNTVYLQMNSLRAEDTATYFCARDRHGGDSSGAFYLWGQGTLVTVSS
notes: Trispecific scDb-scFv (PDL1 x CD137 x SA); also called PRO096 (= PRO1051)
- binding result [5]: no binding
- Kd [6]: 2.8 nM
- koff [6]: 0.0003 s⁻¹
- kon [6]: 110000 M⁻¹ s⁻¹
- Kd [3]: 0.066 nM
- koff [3]: 0.00013 s⁻¹
- kon [3]: 2e+06 M⁻¹ s⁻¹
- Kd [7]: 3 nM
- koff [7]: 0.00062 s⁻¹
- kon [7]: 200000 M⁻¹ s⁻¹

Results, then the binder that gave them:

- Kd [1]: 0.0179 nM
- koff [1]: 2.58e-05 s⁻¹
- kon [1]: 1.44e+06 M⁻¹ s⁻¹
- Kd [2]: 0.0142 nM
- koff [2]: 1.83e-05 s⁻¹
- kon [2]: 1.29e+06 M⁻¹ s⁻¹
B1: PRO1182 (38-02-A04-sc06, FULL graft, VH4, scFv) (scFv)
scFv: DLQMTQSPSSLSASVGDRVTITCQASQSINNVLAWYQQKPGKPPKLLIYRASTLASGVPSRFSGSGSGTDFTLTISSLQPEDFATYYCQSSYGNYGDFGTGTKVTVLGGGGGSGGGGSGGGGSGGGGSQVQLQESGPGLVKPSETLSLTCKASGFSFSNSYWICWVRQPPGKGLEWIGCTFVGSSDSTYYANWAKGRVTISKDSSKNQVSLKLSSVTAADTAVYFCARHPSDAVYGYANNLWGQGTLVTVSS
notes: VL-linker-VH

- Kd [3]: 0.076 nM
- koff [3]: 0.00016 s⁻¹
- kon [3]: 2.1e+06 M⁻¹ s⁻¹
- Kd [4]: 0.094 nM
- koff [4]: 0.0002 s⁻¹
- kon [4]: 2.2e+06 M⁻¹ s⁻¹
B4: PRO830 (33-03-G02 CDR, scFv) (scFv)
scFv: DIQMTQSPSSLSASVGDRVTITCQASQSINDYLAWYQQKPGKAPKLLIYKASTLASGVPSRFSGSGSGTDFTLTISSLQPEDFATYYCQQGYIITDIDNVFGTGTKVTVLGGGGGSGGGGSGGGGSGGGGSQVQLQESGPGLVKPSETLSLTCKVSGFSFSSGYDMCWIRQPPGKGLEWIGCVVAGSVDITYYASWAKGRVTISVDSSKNQFSLKLSSVTAADTAVYYCARKDAYSDAFNLWGQGTLVTVSS
